Experiments:
MGL from C. sporogenes = target: T1, MGL from C. sporogenes (Clostridium sporogenes, UniProt A0A7X5SZI3); format: biochemical; conditions: read-out: MGL from C. sporogenes / Кm
T1 construct: gene megL

MGL from C. tetani = target: T2, MGL from C. tetani (Clostridium tetani, UniProt Q890V5); conditions: read-out: MGL from C. tetani / Кm
T2 construct: gene CTC_02530

MGL from P. gingivalis = MGL from P. gingivalis (Porphyromonas gingivalis, UniProt Q7MX71); conditions: read-out: MGL from P. gingivalis / Кm
CSCC[C@H](N)C(=O)O = assay: purified protein
CCSC[C@H](N)C(=O)O = assay: purified protein
[1] = test system: C[S+]([O-])CC[C@H](N)C(=O)O; assay: purified protein
[2] = test system: N[C@@H](CSCc1ccccc1)C(=O)O; assay: purified protein

Molecule	Km (MGL from C. sporogenes) [µM]	Km (MGL from C. tetani) [µM]	Km (MGL from P. gingivalis) [µM]	Km (CSCC[C@H](N)C(=O)O) [µM]	kcat/Km (CSCC[C@H](N)C(=O)O) [M⁻¹ s⁻¹]	Km (CCSC[C@H](N)C(=O)O) [µM]	kcat/Km (CCSC[C@H](N)C(=O)O) [M⁻¹ s⁻¹]	Km [1] [µM]	kcat/Km [1] [M⁻¹ s⁻¹]	Km [2] [µM]	kcat/Km [2] [M⁻¹ s⁻¹]
CCSCC[C@H](N)C(=O)O [S-Et-L-Hcy]	278	545	930	–	–	–	–	–	–	–	–
MGL from C. tetani (Clostridium tetani E88)	–	–	–	947	12700	–	–	–	–	–	–
MGL from P. gingivalis (Porphyromonas gingivalis W83)	–	–	–	1770	2200	2170	3710	12220	413	1470	3940

From PMC3848071 (Acta Naturae, 2013)
